# Assay results as given in the RNAGym collection of RNA variant scans (doi:10.1101/gr.219683.116).
# B1: mRNA-splicing (parent)
# chain: AGUUGCUGCUGGGAGCUCCAGCACAGUGAAAUGGACAGAAGGGCAGAGCAA
# Variants of: B1
# Test: exon inclusion enrichment index; higher = more inclusion; WT1 exon 5 minigene, HEK293
row,Variant,exon inclusion enrichment index
1,C6A U7C C9A U10C G43C C44U,2.49
2,C9G U10A,0.0101
3,G5A C6U U7A G8U C9A A45G,0.212
4,G5A U7C G8A U10C A23U,1.81
5,G5C C6U G8C C9U U10C A20U,2.17
6,G42C G43U,0.634
7,G2A G5A C6G U7G C9A,0.0189
8,C9A U10A,0.914
9,G5U G8U C9U A23U C24A,0.0491
10,C6A U7A C9A U10A G48C,1.15
11,U4G C6A U7C G8A U10A,0.348
12,G5A U7C G8A U10C G41U G42C,2.97
13,C6A U7A C9A U10A G13C A14C,1.58
14,G5A C6A G8U C9A,0.0357
15,G5A C6G U7G C9A G21A C22A,0.000944
16,C6A U7C C9A U10C C36A A37G,1.73
17,G5C C6G U7C U10C G46A A47U,3.68
18,G5C C6U G8C C9U U10C G43A C44G,3.59
19,G5C C6A U7C G8A U10A G13C A14U,0.136
20,G5A C6G U7A C9A,0.0497
21,C6A U7C C9A U10C A30C A31U,3.15

row,Variant,exon inclusion enrichment index
1,G5C C6G U7C U10C A31U U32C,3.76
2,C6A U7C C9A U10C C22U A23G,3.38
3,G5C C6U G8C C9U U10C G48U,2.26
4,C6A U7A C9A U10A A35U C36G,0.054
5,G5A U7C G8A U10C G48U,2.83
6,A31C U32G,0.373
7,G5A U7C G8A U10C A31C U32G,2.85
8,C6A U7A C9A U10A C18G C19A,0.924
9,C6A U7A C9A U10A G46A A47G,0.249
10,G5C C6A U7C G8A U10A A23C,0.0903
11,C36U A37C,0.0746
12,G5U G8U C9U G21U C22G,0.103
13,G5C C6G U7C U10C G13C A14G,1.61
14,G5A U7C G8A U10C G43U C44A,0.058
15,U4C G5C C6U U7A G8U C9A,0.704
16,G5A U7C G8A U10C A14U,0.895
17,G5C C6G U7C C9G U10G,0.749
18,G5A U7C G8A U10C G41A G42A,1.99
19,G5A C6G U7G C9A A35C C36A,0.000972
20,C6A U7A C9A U10A C24G A25G,0.308
21,C6A U7A C9A U10A G42A G43A,2.97

row,Variant,exon inclusion enrichment index
1,G5A C6G U7G C9A G46C A47U,0.00364
2,C6A U7A C9A U10A A29G,1.06
3,C6A U7A C9A U10A C19G,0.576
4,C6A U7C C9A U10C U32A,3.06
5,G5U G8U C9U A14U G15A,0.00362
6,G5C C6A U7C G8A U10A G26A U27G,0.258
7,G5A C6U U7A G8U C9A C19G A20G,0.0128
8,G5U G8U C9U C36A,0.0987
9,G5A C6U U7A G8U C9A A20G G21A,0.112
10,C6A U7A C9A U10A C22A,0.593
11,G5C C6U G8C C9U U10A G11C,1.84
12,G5C C6G U7C U10C A39U A40G,1.59
13,G5A C6G U7G C9A A23C C24A,0.00335
14,G5C C6U G8C C9U U10C A25U G26A,2.23
15,G2C U3C C6A U7A C9A U10A,0.779
16,G5C C6A U7C G8A U10A A14G,0.0477
17,C6A U7C C9A U10C U32A G33U,3.1
18,C6A U7C C9A U10C G41U G42A,1.6
19,C6A U7A C9A U10A A37C G38A,0.719
20,G5C C6G U7C U10C A39G A40U,0.671
21,G5C C6U G8C C9U U10C G46U A47U,2.05

row,Variant,exon inclusion enrichment index
1,G5U G8U C9U C36A A37G,0.0549
2,C6A U7A C9A U10C G11A,1.91
3,G5C C6G U7C U10C G38C,2.56
4,C6A U7A C9A U10A C19U A20G,0.121
5,G28U A29U,0.00946
6,G5C C6A U7C G8A U10A C19A A20C,0.0294
7,G5A C6G U7G C9A A45G G46U,0.00135
8,G5A C6U U7A G8U C9A G33U G34A,0.0131
9,G5U C6U U7A C9A U10A,0.0191
10,G5U G8U C9U G13U A14G,0.0118
11,G5C C6A U7C G8A U10A G43U C44A,0.00933
12,G5U C6A U7G C9A,0.0473
13,G5A C6G U7G C9A C44U A45C,0.00286
14,G5A C6G U7G C9A A29C,0.00344
15,C16U,0.0903
16,U3G G5A U7C G8A U10C,0.68
17,G5C C6A U7C G8A U10A G28U,0.00934
18,C6A G8C C9A U10C,1.49
19,C6U U7G C9A,0.522
20,C6A U7C C9A U10C U17C,3.11
21,C6A U7C C9G U10A,1.39
